Test [1] addresses T1, SARS-CoV-2 RBD mutant W436R (SARS-CoV-2, UniProt P0DTC2 319-541).
T1 construct: bought variant RBD; also called #SPD-552H7, ACRO Biosystems
The experiment in a line: competition ELISA, RBD variant coated, competitor biotinylated ACE2. Background: ELISA stands for enzyme-linked immunosorbent assay.

Test [2] concerns the target T2, SARS-CoV-2 RBD mutant N354D/D364Y (SARS-CoV-2, UniProt P0DTC2 319-541).
T2 construct: bought variant RBD; also called SPD-S52H3, ACRO Biosystems
The description is as above.

The target in test [3] is T3, SARS-CoV-2 RBD mutant V367F (SARS-CoV-2, UniProt P0DTC2 319-541).
T3 construct: bought variant RBD; also called SPD-S52H4, ACRO Biosystems
The description is as above.

Test [4] deals with T1, SARS-CoV-2 RBD mutant W436R. Put plainly: direct binding to RBD variant (FIG. 7B); format not described further.
For test [5], the target named is T2, SARS-CoV-2 RBD mutant N354D/D364Y. Described as above.
Test [6] has as its target T3, SARS-CoV-2 RBD mutant V367F. The description is as above.

EC50 data for one molecule are collected here from patent US20230235027A1 (US Dept. of Health and Human Services, published 2023).

What is called EC50 is the concentration at which the effect is half-maximal. A high value points to a need for much substance.

Several values for one entry are separate records, joined by “and”; a condition that tells them apart may be missing. Identical values can stand only once.

B1: NIH-CoVnb-112 (VHH)
VHH: DVQLQESGGGLVQPGGSLRLSCAASGLTLDYYAIGWFRQAPGKEREGVSCISSSDGSTYYADSVKGRFTTSRDNAKNTVYLQMNSLKPEDTAVYYCAAVPSTYYSGTYYYTCHPGGMDYWGKGTQVTVSS
In the case of B1, the EC50 in test [1] is ~0.02 µg/mL and ~1.11 nM; in test [2], ~1.11 nM and ~0.02 µg/mL; in test [3], ~0.02 µg/mL and ~1.11 nM; in test [4], ~0.01 µg/mL; in test [5] it was ~0.01 µg/mL; in test [6], ~0.01 µg/mL.
